Target: T1, FOXA2 (immunoprecipitated from control NCI-H292 cells) (Homo sapiens? (NCI-H292 cells), UniProt Q9Y261 1-457)
T1 sequence: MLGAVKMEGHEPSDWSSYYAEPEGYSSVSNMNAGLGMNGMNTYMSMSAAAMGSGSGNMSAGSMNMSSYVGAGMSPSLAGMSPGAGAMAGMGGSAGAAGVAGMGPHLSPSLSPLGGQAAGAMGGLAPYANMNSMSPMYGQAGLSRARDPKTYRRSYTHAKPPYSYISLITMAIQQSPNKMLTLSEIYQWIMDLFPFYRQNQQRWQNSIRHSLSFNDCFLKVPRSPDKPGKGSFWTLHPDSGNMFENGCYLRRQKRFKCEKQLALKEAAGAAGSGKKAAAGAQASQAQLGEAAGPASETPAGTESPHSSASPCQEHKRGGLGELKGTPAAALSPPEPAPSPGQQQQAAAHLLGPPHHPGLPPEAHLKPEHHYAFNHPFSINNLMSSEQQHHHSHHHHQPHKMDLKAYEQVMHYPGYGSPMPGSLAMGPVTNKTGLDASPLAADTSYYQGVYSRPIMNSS
Assay: EMSA; untreated control cells; inhibited by 20-fold unlabeled probe and by anti-FOXA2 antibody; 10 mM Hepes pH 7.9, 1 mM EDTA, 5 mM MgCl2, 10% glycerol, DTT (printed '0.5 m MDTT', probably 0.5 mM), 1 mg/ml BSA, 1 ug poly(dI-dC); 2.5 ug FOXA2; 20 min, room
Conditions: protein: native; blunt

B1: MUC5B promoter FOXA2 site probe (dsDNA)
DNA 1: CCTCCCCGAGAGCAAACACACGTGGCTGGA
DNA 2: TCCAGCCACGTGTGTTTGCTCTCGGGGAGG
binding result: binds

Reference: paper PMC3765780, “Pyocyanin-induced mucin production is associated with redox modification of FOXA2”
